We go through 4 molecules from doi:10.1101/2023.01.19.524784 (bioRxiv, 2023).

For assay [1], the target named is SARS-CoV-2 Delta variant RBD (SARS-CoV-2, Delta (B.1.617.2), strain). As to the kind of experiment: BLI.
For assay [2], the target named is T1, SARS-CoV-2 receptor binding domain (RBD), wild type (SARS-CoV-2, wild type (Wuhan), UniProt P0DTC2). Description: BLI. On the technique in general: In BLI a coated tip is dipped into the sample, and binding shifts an interference pattern.
The target of assay [3] is T2, SARS-CoV-2 Omicron BA.1 RBD (SARS-CoV-2, Omicron BA.1, strain). As to the kind of experiment: BLI.
Assay [4] has as its target SARS-CoV-2 Beta variant RBD (SARS-CoV-2, Beta (B.1.351), strain). As to the kind of experiment: BLI.
For assay [5], the target named is T2, SARS-CoV-2 Omicron BA.1 RBD. Description: cell-based or functional assay.
The target in assay [6] is T1, SARS-CoV-2 receptor binding domain …. Description: cell-based or functional assay.

B1: 20A7 (antibody, V domains shown)
VH: DVQLVESGGGLVKPGGSLRLSCVASGFTFSNSEMHWVRQAPGKGLEWVSVISESGETTHYADSVKGRFTISRDNANNLLLLQMNSLRADDTAVYYCTRYNWNNRVYALDSWGQGVVVTVSS
VL: EIVLTQSPATLSLSPGEGASLSCRASQTVIGSLAWYQQKPGQAPRLLIYGASSRATGIPDRFSGSGSGTDFTLTISSLEPEDFAVYYCQQYGNWPLTFGPGTRLDIR
Turning to B1, the Kd in assay [1], in assay [2], in assay [3] and in assay [4] was < 0.666 pM each time. In assay [5], the “IC50 of neutralization of authentic SARS-CoV-2 BA.1” value (“IC50 … of authentic SARS-CoV-2 BA.1” for short) was 6 ng/mL.

B2: 20A7-VH E33V (antibody, V domains shown)
VH: DVQLVESGGGLVKPGGSLRLSCVASGFTFSNSVMHWVRQAPGKGLEWVSVISESGETTHYADSVKGRFTISRDNANNLLLLQMNSLRADDTAVYYCTRYNWNNRVYALDSWGQGVVVTVSS
VL: EIVLTQSPATLSLSPGEGASLSCRASQTVIGSLAWYQQKPGQAPRLLIYGASSRATGIPDRFSGSGSGTDFTLTISSLEPEDFAVYYCQQYGNWPLTFGPGTRLDIR
B2: the “fold reduction of binding against 20A7” value in assay [2] was ~300 fold.

B3: 25F9 (antibody, V domains shown)
VH: EVQLVESGGGLVQPGGSLRLSCSASGFRFSDYWINWVRQAPGKGLEWVGFIKTKADFGTPAYAESVKGRFSISRDDSKNTVYLQMNSLKTEDTAVYYCTRDRGILEWLIIEAGWFDVWGPGVLVTVSS
VL: QSVLTQPPSASGAPGQRVTISCTGSSSNIGAGHYVSWYQQLPGTAPKLLIHENDKRPSGVSDRFSGSRSGASASLTITGLQSGDEADYYCSVWDRSLNTLFGGGTRVTVL
On to B3, for which the Kd in assay [1], in assay [2], in assay [3] and in assay [4] was < 0.666 pM in each case. Besides, the “IC50 of neutralization of authentic SARS-CoV-2 D614G” value in assay [6] worked out at 6 ng/mL. The “IC50 … of authentic SARS-CoV-2 BA.1” value in assay [5] turned out to be 42 ng/mL.

B4: 21B6 (antibody, V domains shown)
VH: EVRLVESGGGLVQPGGSLRLSCAASGFTFSDYYISWVRQAPGRGPEWVGFIRNVLYRGTTEYAPSVKGRFIISRDDSRAIASLQMNGLKADDTAVYYCALGASGTDRDWFDVWGPGVLVTVSS
VL: DIQMTQSPSSLSASVGDTVTITCRASQDISNSLAWYQQKPGKAPKALIYYASNLESGVPSRFSGSGSGTDFTLTISSLQPEDFATYYCQQHNNYPFTFGPGTKVDIK
As for B4, the Kd in assay [1], in assay [2], in assay [3] and in assay [4] was < 0.666 pM throughout. The “IC50 … of authentic SARS-CoV-2 BA.1” value in assay [5] is 11 ng/mL.

As a reminder, the Kd is the concentration at which binding is half-saturated. A high value points to weaker binding.
